Measured values as given in PMC6061939 (Biochemical and biophysical research communications, 2017).
One block for each molecule: values may come before it.

Legend:
Test in all cases: SEC
[1] = molecular target: Dictyostelium discoideum Mdm12 (residues S2-N202) (Dictyostelium discoideum)
[2] = molecular target: Saccharomyces cerevisiae Mmm1Δ (SMP domain) (Saccharomyces cerevisiae) (UniProt P41800)
[3] = molecular target: T1, Saccharomyces cerevisiae Mmm1Δ (SMP domain) (Saccharomyces cerevisiae, UniProt P41800 194-409)
T1 sequence (looked up): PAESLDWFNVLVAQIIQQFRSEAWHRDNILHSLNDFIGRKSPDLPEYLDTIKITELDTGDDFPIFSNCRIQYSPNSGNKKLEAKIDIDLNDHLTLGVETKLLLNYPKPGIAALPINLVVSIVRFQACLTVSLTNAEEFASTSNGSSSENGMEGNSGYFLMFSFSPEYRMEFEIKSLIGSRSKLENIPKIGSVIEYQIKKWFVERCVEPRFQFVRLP

stoichiometry N [1]: 2
Molecule: Dictyostelium discoideum Mdm12 (residues S2-N202) (natural protein)

stoichiometry N [2]: 1
Molecule: Saccharomyces castellii Mdm12 (residues S2-E244) (natural protein)

stoichiometry N [3]: 1
B1: Saccharomyces cerevisiae Mdm12 (natural protein)
chain: MSFDINWSTLESDNRLNDLIRKHLNSYLQNTQLPSYVSNLRVLDFDLGKVGPAITLKEITDPLDEFYDSIREEADQETEENNDNKEDSEHICPDRTIANHEGPKDDFEAPVVMPSPNDIQFLLEVEYKGDLLVTIGADLVLNYPVEKFMTLPVKLSISDIGLHSLCIVACLSKQLFLSFLCDVSDPALDDNQTVLDPKGPILAATKPLERISIVRSMKIETEIGEQYQGQGSVLRSVGELEQFLFTIFKDFLRKELAWPSWINLDFNDGDE
